From PMC11555092

Biological target: HIV-1 CA hexamer (CA A14C/E45C/W184A/M185A mutant) (HIV-1)
Assay: SEC; Superdex 10/300 GL increase column in 50 mM Tris pH 8; elution at 12.5 mL

Question: Which stoichiometry N does the source give for “HIV-1 CA hexamer (CA A14C/E45C/W184A/M185A mutant) (complex)” here?
Answer: The stoichiometry N was 6.
